Reference: publication PMC5890177, “Selective Detection of Lysozyme Biomarker Utilizing Large Area Chemical Vapor Deposition-Grown Graphene-Based Field-Effect Transistor”

Target: lysozyme (chicken (egg white), UniProt P00698 19-147)
Test: square wave voltammetry (electrochemical aptasensor); 0.01x PBS; peak current falls with lysozyme; 0.01x PBS (stock dilutions in 0.1 mM phosphate-buffered solution, pH 7.4), 30 min incubation, then rinse in 0.01x PBS and DI water; chip pretreated with Tween 20; binding temperature not stated
Details: protein: commercial; label: methylene blue

Chain of lysozyme (P00698 19-147): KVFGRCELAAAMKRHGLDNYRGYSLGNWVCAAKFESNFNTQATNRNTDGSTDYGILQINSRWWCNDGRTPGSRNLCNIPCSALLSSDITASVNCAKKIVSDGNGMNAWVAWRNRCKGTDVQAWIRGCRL

ATCAGGGCTAAAGAGTGCAGAGTTACTTAG (ssDNA, thiol) [MB-labelled thiolated anti-lysozyme aptamer]
binding result: binds
